Numbered stars: 1 amine (or outer) side, 2 acyl side, 3 side chain; on linkers, the order of the positions; unused ones are H or OH. Bridge positions count the residues as written; N and C are the ends. Square brackets hold non-standard residues; d marks the D form. Side chains are listed from the residue outwards. Ends that are not written are not given here. * marks the point of attachment. C18 diacid = O=C(O)CCCCCCCCCCCCCCCCC(=O)*; γGlu = O=C(O)[C@H](CCC(=O)[*:2])N[*:1]; AEEA = NCCOCCOCC(=O)O; Aib = CC(C)(N)C(=O)O
T1: human amylin receptor (calcitonin receptor co-expressed with receptor activity modifying protein, RAMP3) (human, UniProt P30988 25-474; O60896 24-148)
T1 sequence (looked up) 1: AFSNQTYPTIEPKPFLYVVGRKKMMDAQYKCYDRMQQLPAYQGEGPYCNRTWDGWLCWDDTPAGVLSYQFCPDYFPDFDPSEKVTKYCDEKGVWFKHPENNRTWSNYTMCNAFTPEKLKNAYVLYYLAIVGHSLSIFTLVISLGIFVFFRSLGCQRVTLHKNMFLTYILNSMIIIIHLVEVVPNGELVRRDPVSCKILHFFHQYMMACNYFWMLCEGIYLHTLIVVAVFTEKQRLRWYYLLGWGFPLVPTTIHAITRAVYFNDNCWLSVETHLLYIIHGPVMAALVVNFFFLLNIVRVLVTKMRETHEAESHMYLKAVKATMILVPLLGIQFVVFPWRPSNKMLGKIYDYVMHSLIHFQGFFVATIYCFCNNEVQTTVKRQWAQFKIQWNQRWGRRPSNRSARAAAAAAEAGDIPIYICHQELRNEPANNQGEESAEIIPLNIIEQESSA
T1 sequence (looked up) 2: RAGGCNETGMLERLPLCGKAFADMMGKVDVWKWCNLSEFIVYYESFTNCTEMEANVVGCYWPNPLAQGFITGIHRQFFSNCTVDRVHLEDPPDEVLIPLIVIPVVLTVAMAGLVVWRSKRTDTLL

T2: human calcitonin receptor (human, UniProt P30988 25-474)
T2 sequence (looked up): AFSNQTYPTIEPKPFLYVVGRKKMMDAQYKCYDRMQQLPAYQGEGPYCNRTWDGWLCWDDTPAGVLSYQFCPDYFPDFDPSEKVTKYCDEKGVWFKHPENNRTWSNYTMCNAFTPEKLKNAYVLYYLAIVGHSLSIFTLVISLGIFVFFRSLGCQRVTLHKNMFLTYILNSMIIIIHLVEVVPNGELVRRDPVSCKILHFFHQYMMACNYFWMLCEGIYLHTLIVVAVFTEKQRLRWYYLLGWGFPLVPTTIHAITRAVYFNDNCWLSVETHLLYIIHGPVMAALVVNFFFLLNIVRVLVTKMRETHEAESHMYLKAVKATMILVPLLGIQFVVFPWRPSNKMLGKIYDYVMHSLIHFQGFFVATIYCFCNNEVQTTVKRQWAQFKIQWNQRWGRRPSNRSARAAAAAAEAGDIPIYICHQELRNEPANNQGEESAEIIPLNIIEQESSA


Experiments:
[1] = biological target: T1, human amylin receptor (calcitonin …); test: cell-based or functional assay
[2] = biological target: T2, human calcitonin receptor; test: cell-based or functional assay

Row | EC50 (cAMP production) [1] | Ratio (EC50 hCTR / EC50 hAMYR3) [1] | EC50 (cAMP production) [2] | Binder
1 | 588 pM | 29 | 16900 pM | K([AEEA-AEEA-γGlu-C18 diacid])CNTATCATQRLANFLRHSS[Aib]NFGPILPPTEVGSNTY-NH2 (disulfide 2-7; N-terminus assumed; SMILES CC[C@H](C)[C@H](NC(=O)[C@@H]1CCCN1C(=O)CNC(=O)[C@H](Cc1ccccc1)NC(=O)[C@H](CC(N)=O)NC(=O)C(C)(C)NC(=O)[C@H](CO)NC(=O)[C@H](CO)NC(=O)[C@H](Cc1c[nH]cn1)NC(=O)[C@H](CCCNC(=N)N)NC(=O)[C@H](CC(C)C)NC(=O)[C@H](Cc1ccccc1)NC(=O)[C@H](CC(N)=O)NC(=O)[C@H](C)NC(=O)[C@H](CC(C)C)NC(=O)[C@H](CCCNC(=N)N)NC(=O)[C@H](CCC(N)=O)NC(=O)[C@@H](NC(=O)[C@H](C)NC(=O)[C@@H]1CSSC[C@H](NC(=O)[C@@H](N)CCCCNC(=O)COCCOCCNC(=O)COCCOCCNC(=O)CC[C@H](NC(=O)CCCCCCCCCCCCCCCCC(=O)O)C(=O)O)C(=O)N[C@@H](CC(N)=O)C(=O)N[C@@H]([C@@H](C)O)C(=O)N[C@@H](C)C(=O)N[C@@H]([C@@H](C)O)C(=O)N1)[C@@H](C)O)C(=O)N[C@@H](CC(C)C)C(=O)N1CCC[C@H]1C(=O)N1CCC[C@H]1C(=O)N[C@H](C(=O)N[C@@H](CCC(=O)O)C(=O)N[C@H](C(=O)NCC(=O)N[C@@H](CO)C(=O)N[C@@H](CC(N)=O)C(=O)N[C@H](C(=O)N[C@@H](Cc1ccc(O)cc1)C(N)=O)[C@@H](C)O)C(C)C)[C@@H](C)O) [Peptide 45 (SEQ ID NO: 45)]
2 | 331 pM | 19 | 6390 pM | K([γGlu-C18 diacid])KCNTATCATQRLANFL[Aib]HSS[Aib]NFGPILPPTNVGSNTY-NH2 (disulfide 3-8; N-terminus assumed; SMILES CC[C@H](C)[C@H](NC(=O)[C@@H]1CCCN1C(=O)CNC(=O)[C@H](Cc1ccccc1)NC(=O)[C@H](CC(N)=O)NC(=O)C(C)(C)NC(=O)[C@H](CO)NC(=O)[C@H](CO)NC(=O)[C@H](Cc1c[nH]cn1)NC(=O)C(C)(C)NC(=O)[C@H](CC(C)C)NC(=O)[C@H](Cc1ccccc1)NC(=O)[C@H](CC(N)=O)NC(=O)[C@H](C)NC(=O)[C@H](CC(C)C)NC(=O)[C@H](CCCNC(=N)N)NC(=O)[C@H](CCC(N)=O)NC(=O)[C@@H](NC(=O)[C@H](C)NC(=O)[C@@H]1CSSC[C@H](NC(=O)[C@H](CCCCN)NC(=O)[C@@H](N)CCCCNC(=O)CC[C@H](NC(=O)CCCCCCCCCCCCCCCCC(=O)O)C(=O)O)C(=O)N[C@@H](CC(N)=O)C(=O)N[C@@H]([C@@H](C)O)C(=O)N[C@@H](C)C(=O)N[C@@H]([C@@H](C)O)C(=O)N1)[C@@H](C)O)C(=O)N[C@@H](CC(C)C)C(=O)N1CCC[C@H]1C(=O)N1CCC[C@H]1C(=O)N[C@H](C(=O)N[C@@H](CC(N)=O)C(=O)N[C@H](C(=O)NCC(=O)N[C@@H](CO)C(=O)N[C@@H](CC(N)=O)C(=O)N[C@H](C(=O)N[C@@H](Cc1ccc(O)cc1)C(N)=O)[C@@H](C)O)C(C)C)[C@@H](C)O) [Peptide 36 (SEQ ID NO: 36)]
3 | 174 pM | 21 | 3600 pM | K([γGlu-γGlu-C18 diacid])CNTATCATQRLANFLVHSSNNFGPILPPTNVGSNTY-NH2 (disulfide 2-7) [Peptide 5 (SEQ ID NO: 5)]
4 | 249 pM | 8 | 1960 pM | K([γGlu-C18 diacid])KCNTATCATQRLANFLSHSS[Aib]NFGPILPPTNVGSNTY-NH2 (disulfide 3-8; N-terminus assumed; SMILES CC[C@H](C)[C@H](NC(=O)[C@@H]1CCCN1C(=O)CNC(=O)[C@H](Cc1ccccc1)NC(=O)[C@H](CC(N)=O)NC(=O)C(C)(C)NC(=O)[C@H](CO)NC(=O)[C@H](CO)NC(=O)[C@H](Cc1c[nH]cn1)NC(=O)[C@H](CO)NC(=O)[C@H](CC(C)C)NC(=O)[C@H](Cc1ccccc1)NC(=O)[C@H](CC(N)=O)NC(=O)[C@H](C)NC(=O)[C@H](CC(C)C)NC(=O)[C@H](CCCNC(=N)N)NC(=O)[C@H](CCC(N)=O)NC(=O)[C@@H](NC(=O)[C@H](C)NC(=O)[C@@H]1CSSC[C@H](NC(=O)[C@H](CCCCN)NC(=O)[C@@H](N)CCCCNC(=O)CC[C@H](NC(=O)CCCCCCCCCCCCCCCCC(=O)O)C(=O)O)C(=O)N[C@@H](CC(N)=O)C(=O)N[C@@H]([C@@H](C)O)C(=O)N[C@@H](C)C(=O)N[C@@H]([C@@H](C)O)C(=O)N1)[C@@H](C)O)C(=O)N[C@@H](CC(C)C)C(=O)N1CCC[C@H]1C(=O)N1CCC[C@H]1C(=O)N[C@H](C(=O)N[C@@H](CC(N)=O)C(=O)N[C@H](C(=O)NCC(=O)N[C@@H](CO)C(=O)N[C@@H](CC(N)=O)C(=O)N[C@H](C(=O)N[C@@H](Cc1ccc(O)cc1)C(N)=O)[C@@H](C)O)C(C)C)[C@@H](C)O) [Peptide 37 (SEQ ID NO: 37)]
5 | 68 pM | 5 | 310 pM | K([AEEA-AEEA-γGlu-C18 diacid])CNTATCATQRLANFLVHSSNNFGPILPPTNVGSNTY-NH2 (disulfide 2-7) [Peptide 6 (SEQ ID NO: 6)]
6 | 470 pM | 6 | 2950 pM | K([γGlu-C18 diacid])KCNTATCATQRLANFLVHSS[Aib]NFGPILPPTNVGSETY-NH2 (disulfide 3-8; N-terminus assumed; SMILES CC[C@H](C)[C@H](NC(=O)[C@@H]1CCCN1C(=O)CNC(=O)[C@H](Cc1ccccc1)NC(=O)[C@H](CC(N)=O)NC(=O)C(C)(C)NC(=O)[C@H](CO)NC(=O)[C@H](CO)NC(=O)[C@H](Cc1c[nH]cn1)NC(=O)[C@@H](NC(=O)[C@H](CC(C)C)NC(=O)[C@H](Cc1ccccc1)NC(=O)[C@H](CC(N)=O)NC(=O)[C@H](C)NC(=O)[C@H](CC(C)C)NC(=O)[C@H](CCCNC(=N)N)NC(=O)[C@H](CCC(N)=O)NC(=O)[C@@H](NC(=O)[C@H](C)NC(=O)[C@@H]1CSSC[C@H](NC(=O)[C@H](CCCCN)NC(=O)[C@@H](N)CCCCNC(=O)CC[C@H](NC(=O)CCCCCCCCCCCCCCCCC(=O)O)C(=O)O)C(=O)N[C@@H](CC(N)=O)C(=O)N[C@@H]([C@@H](C)O)C(=O)N[C@@H](C)C(=O)N[C@@H]([C@@H](C)O)C(=O)N1)[C@@H](C)O)C(C)C)C(=O)N[C@@H](CC(C)C)C(=O)N1CCC[C@H]1C(=O)N1CCC[C@H]1C(=O)N[C@H](C(=O)N[C@@H](CC(N)=O)C(=O)N[C@H](C(=O)NCC(=O)N[C@@H](CO)C(=O)N[C@@H](CCC(=O)O)C(=O)N[C@H](C(=O)N[C@@H](Cc1ccc(O)cc1)C(N)=O)[C@@H](C)O)C(C)C)[C@@H](C)O) [Peptide 42 (SEQ ID NO: 42)]
7 | 1050 pM | 10 | 10400 pM | K([γGlu-C18 diacid])KCNTATCATQRLANFLEHSS[Aib]NFGPILPPTNVGSNTY-NH2 (disulfide 3-8; N-terminus assumed; SMILES CC[C@H](C)[C@H](NC(=O)[C@@H]1CCCN1C(=O)CNC(=O)[C@H](Cc1ccccc1)NC(=O)[C@H](CC(N)=O)NC(=O)C(C)(C)NC(=O)[C@H](CO)NC(=O)[C@H](CO)NC(=O)[C@H](Cc1c[nH]cn1)NC(=O)[C@H](CCC(=O)O)NC(=O)[C@H](CC(C)C)NC(=O)[C@H](Cc1ccccc1)NC(=O)[C@H](CC(N)=O)NC(=O)[C@H](C)NC(=O)[C@H](CC(C)C)NC(=O)[C@H](CCCNC(=N)N)NC(=O)[C@H](CCC(N)=O)NC(=O)[C@@H](NC(=O)[C@H](C)NC(=O)[C@@H]1CSSC[C@H](NC(=O)[C@H](CCCCN)NC(=O)[C@@H](N)CCCCNC(=O)CC[C@H](NC(=O)CCCCCCCCCCCCCCCCC(=O)O)C(=O)O)C(=O)N[C@@H](CC(N)=O)C(=O)N[C@@H]([C@@H](C)O)C(=O)N[C@@H](C)C(=O)N[C@@H]([C@@H](C)O)C(=O)N1)[C@@H](C)O)C(=O)N[C@@H](CC(C)C)C(=O)N1CCC[C@H]1C(=O)N1CCC[C@H]1C(=O)N[C@H](C(=O)N[C@@H](CC(N)=O)C(=O)N[C@H](C(=O)NCC(=O)N[C@@H](CO)C(=O)N[C@@H](CC(N)=O)C(=O)N[C@H](C(=O)N[C@@H](Cc1ccc(O)cc1)C(N)=O)[C@@H](C)O)C(C)C)[C@@H](C)O) [Peptide 39 (SEQ ID NO: 39)]

Reference: patent publication US20220204580A1 (AstraZeneca / MedImmune, published 2022)
